The target in assay [1] is HLA class II antigens (HLA-DR, HLA-DQ and HLA-DP). Description: Luminex dose/response, mean over 5 class II bead types; SD 298.79.
Assay [2] has the same target. Put plainly: Boltzmann sigmoid fit of the Luminex titration curve, lower asymptote.
Assay [3] shares this target. Put plainly: Boltzmann sigmoid fit of the Luminex titration curve, upper asymptote.
For assay [4] the target is unchanged. Description: Luminex dose/response, mean over 5 class II bead types, antibody 2 × 10^0 µg/ml; SD 167.
The target is the same in assay [5]. Put plainly: Luminex titration on Labscreen Mixed class II beads; concentration at 50% of (MAX - MIN).
The target is the same in assay [6]. Description: Luminex dose/response, mean over 5 class II bead types, antibody 5 × 10^-4 µg/ml; SD 29.6.
Assay [7] has the same target. Put plainly: Luminex dose/response, mean over 5 class II bead types, antibody 2 × 10^-3 µg/ml; SD 72.15.
The target is the same in assay [8]. Put plainly: Luminex dose/response, mean over 5 class II bead types, antibody 5 × 10^-1 µg/ml; SD 160.45.
For assay [9] the target is unchanged. Description: Luminex, each Labscreen Mixed class II bead type, antibody at 2 µg/ml; SD approximately 700.
For assay [10] the target is unchanged. Description: Luminex dose/response, mean over 5 class II bead types, antibody 7.8 × 10^-3 µg/ml; SD 145.09.
For assay [11] the target is unchanged. Description: Luminex dose/response, mean over 5 class II bead types, antibody 3.13 × 10^-2 µg/ml; SD 273.56.

The record followed here is patent US10705076.

One may read the EC50 as the concentration giving half of the maximal effect. Low values mean an effect from little substance, high ones a need for much substance.

B1: monoclonal chimeric immunoglobulin Hu-IgG1 K [F3.3] (antibody, V domains shown)
VH: EVKLEESGGGLVQPGGSMKLSCVASGFTFSNSWMNWVRQSPEKGLEWVAEIRLKSNNYATRYAESVKGRFTISRDDSKSSVYLQMNNLRSEDTAIYYCTPLSYSFDYWGQGTTVTVST
VL: QIVLTQSPAIMSASPGEKVTMTCSASSIVRYMYWFQQKPGSSPRLLIYDTSSLSSGVPVRFSGSGSGTSYSLTISRMEAEDAATYFCQQWSSYPLTFGGGTKLEIKR
For B1, the Average (fluorescence intensity) (fluorescence units) turned out to be 18000 in assay [1]; 23600 in assay [4]; 316 in assay [6]; 1090 in [7]; 22800 in [8]; 3520 in assay [10]. In addition, in assay [11], the Average (fluorescence intensity) (fluorescence units) worked out at 9130. In addition, the MIN (fluorescence units) in assay [2] came out at 88. This molecule had an MAX (fluorescence units) in assay [3] of 24600. The same molecule yielded an EC50 in assay [5] of 0.05 µg/mL. The fluorescence (average fluorescence units) in [9] was determined as 22000.
